The source of these data is a protein production outcome set (Wang et al. 2014).
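Further: failed if final PepcDB status was selected cloned or expressed and not failed if soluble or beyond.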

The nature of the data set: label from the status in PepcDB records.
Regarding “MNLVKFTLDKANSQAYSSEQTTTEVSNMTIENGVRVLAGSMVLLSVILTWFVHPNFLWLTVFVGVNLIQSAFTGFCPAAFFLKKLGLR”, the protein production result is listed as “failed”.

Regarding “MNLYADYEYYTSTYKGNLAKEEFEKSIMKASAYVRRITFGRADDNMEMEEVKLAACSVCDLIANDEKVRSKHSGRAVTSENTDGYSVSYESGGNGETADDLLKRNIFDTLLLYLEPTRLLYMGVELLEHHHHHH”, the protein production entry is listed as “not failed”.

In the case of “MNLYSLLLSLITGCFLLAQGGTSFSSPVETEKSAVTAQSILEKADEIRFPQDSFQVNVAIRTAAPDHAEDLYRYQVLSKGNENSIVMITEPASERGQAILMKGRDLWVFMPSVSQPIRLSLSQRLTGQVANGDIARANFTGDYHPQLLRNESIDDEDYYVLELTGIDRSVTYQKVLLWVNQSNFRPYKAEFYSVSGRLLKTSRYENFDNILGEMRPTRIIMEDALKSGEVSVLDYSDMKLRDLPDKIFTKDYLKRLE”, the protein production entry was “failed”.

As for “MNMKATALTATTVAIASLLPSMGETNVQTANAEQLSNVKTGYVKVDQVALHTKDNANSSSIDTIRFNTKVNILETTNGWYKVSVNNKVGYVQKDSILLKNKLQSNNQYIVNANALNVRSEPNLESSILDVLPNGKFVTIQEEQGEWYKISHNGKAGYVQKAFVSNGSQPLVKGITVQNNTKYTVATPKLNVRSNASTSSALLGSLQNGTQLQVVETVGTWYKIRFGTGYGYVAKHYVVQNQTQSQTQTAQPTSIPAVFKFPTQGRISSTFDMRWEQMHYGIDIAAPGNVSIQAAAAGKVVKSYYSASYGNVVFIAHQINGKLYTTVYAHMKDRTVQAGDQVQAGQLVGHMGNTGHSYGQHLHFELHNGEWNFEKTNAVNPLPYLVRLEHHHHHH”, the protein production result is recorded as “failed”.

Turning to “MNMQKLRIELGEETNDELYDLLLLADPSKDIVDEYLERGECYTAWAGDELAGVYVLLKTRPQTVEIVNIAVKESLQKKGFGKQLVLDAIEKAKKLGADTIEIGTGNSSIHQLSLYQKCGFRIQAIDHDFFLRHYDEDIFENGIQCRDMVRLYLDLLEHHHHHH”, the protein production entry was “not failed”.

In the case of “MNMVEPLAVAILIAYLVALLLIGLLSSKKSSVGMTDFFIAGRNLNKWTVALSAVSSGRSAWLVLGVTGTAYATGLDAVWAVAGYITVEVFLFFYVARRFRAYSEQTGSITIPDILETRFNDKTHILRGGSAFIIMFFMIAYVASQLVAGGGAFATSMGVSSSTGMWVTAVILLAYTMLGGFHAVSKTDVVQAGFMFVSLVILPVVAIIGLGGFDPLLQVMHTEGGGFTSPFAFGFGAVIGLLGIGFGSPGNPHILVRYMSLKNVKEMRQAALISSVWNVLMGWGAVMIGLAGRAYFPDVSLLPNGDQEQVFLMLGSEILHPLFFGFLLVAVLAAIMSSADSQLLVGSSAFVRDIYQKMFRRNRKLSQKKLVRLSRLTTVVFMGLSLILAFTAQEFVFWMVLFAFGGLGACFGPALLLSFYWKGVTRQGVLWGMIAGLLTVILVKQQPQWTYAFLPDVKELLNTYFFGITYEAVPGFIVATTITVVISLFTKRPKHAKQIIERLNESA”, the protein production entry is “failed”.

For “MNNAMQLLQPYPFKKLRALLGSVTPNPEKRPVALSIGEPKHRSPDFVAKALADNLDQMAVYPTTLGIPALREAIAGWCNRRFGVPQGWIDPARNVLPVNGTREALFAFTQTVVNRSDDGLVVSPNPFYQIYEGAAFLAGAQPHYLPCLSDNGFNPDFDAVDADIWKRCQILFLCSPGNPTGALIPVETLKKLIALADEHDFVIAADECYSELYFDEQTPPPGLLSACVELGRQDFKRCVVFHSLSKRSNLPGLRSGFVAGDAEILKAFLLYRTYHGCAMPVQTQLASIAAWNDEEHVRANRDLYREKFDAVLDILAPVLDVQRPDGGFYLWPNVGTDDAAFCRDLFVDQHVTAVPGSYLSREVDGVNPGAGRVRLALVAPLAECIEAAERIRAFVLK”, the protein production result was “not failed”.

On to “MNNENMVRVFYVLLMGLGFPIMRFMSIHFETLNNNSVRFLSGGSLFVIICLIKFRSELKKIIGEPKIILYLFIYLFILGIFMTGNMFFFINGLKYTSALAGSIFGILAMPLAIIIAGIFFKDERDRIRQKEFYIGELLAIIGSLIFVINSSNNDGNTDFFLGAIFLFTAIFIQSVQNLIVKKVAKKINAVVISASTATISGVLFLCLAFNTKQIYLLQDVGIGMLIGLVCAGFYGMLTGMLMAFYIVQKQGITVFNILQLLIPLSTAIIGYLTLDERINIYQGISGIIVIIGCVLALKRKNKEC”, for which the protein production entry is “failed”.

For the sequence “MNNFTYEKLHNNLQYLKLNTIEELLDNCLEIAARDSKTTMEVLDYLFEQEKKHREAAAIERRMKSAGFPVKKMLEEFDFEFQSSINKKVIEDLATLRFVHNAENIVLLGPPGVGKSHLAIALGIEAVKAGISVHFTNTGNLIERLKIANREGILEKKIRDLMKFKVLIIDEIGYLPFDDEGAHCLFQLISRRYEKSSTILTSNKSYGEWGEIFKDHVIAAALLDRILHHCTTINIKGESYRLKERKKQGIKTGLIRHNSTEILENLEHHHHHH”, the protein production result is “not failed”.

For the sequence “MNNIRLLNQNDLDSYIELMKFGHHNYEWDRYYLENVSIDRLKTILSNHTDYWNIFGAFEDDELVATCTLKQMNYVGKCHKAILENNFVKNNDEIVNRELINHIIQYAKEQNIETLMIAIASNNISAKVFFSSIGFENLAFEKNASKIGNEYFDENWLIYSTTE”, the protein production entry was “failed”.

“MNNLINNPLFGILLTLFAFEIGMTIYKKTKIPLLNPLLIAIALVIAVLVSCHISFETYNIGGSFINAFLGPATVILAVPLYKQLQLLKNHFVPIMTGIIVGSFASMCCVIIMGYFLGVNHELIASLVPKSVTTPIGVEVASGLGGIPSITVIAVIITGITGAIIAPMVCKLLKIDHEVAMGVSMGTAAHAVGTTKALEIGETHGAMSSLSIGVAGLITVFLAPPIYMLSALILKFV”: the protein production entry is on record as “failed”.

For the sequence “MNNLPLLNDLRVFMLVARRAGFAAAAEELGVSPAFVSKRVSLLEQTLNVMLLHRTTRRVTITEEGERIYEWAQRILQDVDEMMDELSDVRQVPQGTLRIISSFGFGRRVVAPALSALALQYPQLELRFDVQDRLVDLVNEGVDLDIRVGDDIAPNLIARQLAANHRVLCASPQFLARHAPPKQLSDLAALPCLVIKERDHPFGVWQLHSKEGQHAIKVTGPLSSNHGEIVHQWCLDGQGIALRSWWDVRENIASGHLVQVLPDYWQPANVWAVYVSRLATSAKIRTTVEFLRHYFQLHYPQHEPTASAVGRGD”, the protein production result is “failed”.

“MNNPKPCEWKSNELSRGYIADYKAFNFVDGEGVRCSLYVSGCPFHCEGCYNKAAQSFKYGKPYTKELEDDILKDIGHESVQGLTLLGGEPFLNTATCLSIVKRIRATYGETKDIWSWTGYTWDEMMQETADKLELLSLIDVLVDGRFEQKLFDPNLAFRGSSNQRIIDVQKSLAAGEVVLYELLEHHHHHH”: the protein production entry was “failed”.

As for “MNNPQDYSHKECLKASLLETFGFDGFRPGQEQTITQLLKGQSSLSIFPTGSGKSLCYQLTALHLPHLTLVVSPLLALMKDQLSFLASKGIKAASIDSTLKGNEAQTVMAGVRDGDIKVLMVSVERFKNERFRQFIESVPVSMLVVDEAHCISEWGHNFRPDYLKLPSYCQALNISLVLLLTATATRKVKQDMAAKFAIRDEHIVQTGFYRSNLDLSVLPVTQAHKNKQLEQIISAQQGAGIVYVTLQHSAETVAQYLKQQGINACAYHAGFDSDTRSQIQQDFMAGKIQVIVATIAFGMGIDKSNIRFVIHYDLPKSIENYSQEIGRAGRDGLPSQCFTLANLDGLNTVENFVYGDTPEFTGIEMLLNTIKSEVITSTHVGISDNRSEGKWELQILQLSNAVNIKQLPLKTLLVQLELAGVIEPLYAYFADFKIKLLKPKAEIINSFNDQRKDFLQRIFNATDFKKVWGSLNFDTLLQDQSIERNRVIAALEYLQEQQLIVLETKGMTEVFNIKLNELADPSLCQTLSNYFKDNEEKEIKRIATLVRFFQLDTCLTVNLARYFDDTSFDDKRFDGNSSDNNSLDSARNSGTVPQCGHCSVCRGQVAVLEHSQAQIPWPSDEALKQGMTELAERLSGKINQPLSIESFCRFFAGMSVPLFGRNKVRQLSGFGVCEQQRYQAILEKLASLSK”, the protein production result is given as “failed”.

For the sequence “MNNSAFTFQTLHPDTIMDALFEHGIRVDSGLTPLNSYENRVYQFQDEDRRRFVVKFYRPERWTADQILEEHQFALQLVNDEVPVAAPVAFNGQTLLNHQGFYFAVFPSVGGRQFEADNIDQMEAVGRYLGRMHQTGRKQLFIHRPTIGLNEYLIEPRKLFEDATLIPSGLKAAFLKATDELIAAVTAHWREDFTVLRLHGDCHAGNILWRDGPMFVDLDDARNGPAVQDLWMLLNGDKAEQRMQLETIIEAYEEFSEFDTAEIGLIEPLRAMRLVYYLAWLMRRWADPAFPKNFPWLTGEDYWLRQTATFIEQAKVLQEPPLQLTPMY”, the protein production result was “not failed”.

Turning to “MNNSTQTAPDSGNTLVISNVHLLLSDGWKNDTCLQVTEGVITAIGQDVVQGNSQVIDAGGGYLLPGIIDLHGDAFERHITPRAGTLFPLDLALAANDASLVANGITTFYYSITDGFEPGPRSRETVRKLLLALEELMPRFSCQAKVHIRHEKVNTEGHDELVDWLRNGRVHMLSLNDHLPELDNERAVKRYLAGLQRRVTMDDDATQEFLSSLQGRRELGEEQTRALASLALASGVSLSSHDDHGLEDVARNVQLGTAIAEFPMDAQTALESRKSGISVLMGAPNLVRGGSHVGAISVRDAIAEGLVDILCSDYHYPSLFTAPFVTARHDLLPLADAWKMVSENPARAAGMGDRKGQIAPGYDADLLLLSELDGSPLSLQATFVGGTPVYQREGQWQKQPLAAEAGGVVV”, the protein production entry is reported as “failed”.

Turning to “MNNTPVEPVRLTPDNPLVSVVIRTKDRPKRLAEAVRSVREQTHRPLEVIVVNDGGWPLPEEALKEQAGDVELILIQLEQNQGRSIAANTGLQAATGRYLCFLDDDDRFLPDHIELLSSCLEHIEHRVCYSDAELCWQVYNVETGEFDIVNRQVFGSRDFNLAELLCGNYIPLNTLLFDRQVLLQVGGFDPQFDIYEDWDLLLRVGSLYPFYHLPRVTAQYNQWSKDHQNFYNHFSQTGQAPLLHITGYDRLIEKNRHLFSADAARHLLSVINRLRAIEAELAQRDAVPAESPLTRLTAQLEQTLATIGPSFATLEGRLADLDACQRDALVSATSKLNEGVSDLDGLRSQVAHLCMEFENASGKIDTSQAELQKTATLLVQTQNLLEDYRKEIARTTELNRLISERDSELRTLRQTIARNEAEITALHKERNEANATISALDEKVAHAETEKASLHQIIAQTEARLASVYGSTSWRIAAPLRAVSVAVRWLLRNTRRAFLLMWWLCTGQYARATNHAFPHLWRHVPPRLKMIIPPRLAGSVKRRLHLADITAPRPLENQPDNSHPDTTAEAHVTLDVPERHYVDLSSEPVAHTPIKAIAFYLPQFHTIPENDKWWGEGFTEWTNTRKGKPLFDGHHQPRVPLHLGYYNLENIEVYAQQVQLARKAGLYGFCFYFYWFGGKTLLEKPLLNMLANPQIDQPFCLCWANENWTRRWDGLDDDILIAQHHSEEDAIAFLRYINTYFRDDRYIKIDGKPLLLVYRPSIIPDITHIQEVWRKHATELGWPGIYLVSAQTFGQKDPRDFHFDAAVQFPPQHAAPCAAFHSETPNLADDFEGCVFDYHNVATQFCDSPEVDYKLFRSVTLAWDNSARRGKRATILRNFSLTSYAQWLLTACKATLADHNLTENERLVFINCMERMGRGHLSGAGHQIWLWIPGSHKKGAECILGWKTQAIRNRSKL”, the protein production result is “failed”.

In the case of “MNPADWIDTGAVPPRPLPAKVDAALAYLAEALGHPVYAHWTLTRIKRRYGSLADAKAAQPTVLKLLLTHDGAVEYWERGRLRTAPADQAPSPDAVLARLLHTHRRRFRSADASANAGAVPATAQTTGLVANPWLAAHSHADHAWLARTGRFAQPQAAANTLGAVDDAQALALFLRDRTGRSSHTLRAYGAELRRLMRWCGTHGFGPFSDLTRQQLLAYRHTLEHGSSGTANTTPPLSEATRTRALAVVASLYGYWYATGYLHANPAAGLSAGSRARSGFVPTRLIPSALLDACDAWLDANSAGDLLPALRQRAIWALYRYAGVRLAELAWSAETALPRLEAEAPGRWTLYVCGKGRKVRAIPLPAQCMVVLRAYRRARGLPPEPSAHETLPVIHGSKGEALQQTGLYREIKAIFAVVADGLQAREPAKAMLLRAASPHWLRHAYARTLVVDHQVPLPAAQALLGHASVQTTAAYAKTDLTQLRAFVDATFADDVP”, the protein production entry was “failed”.
